The chains are these.
B1: Aspartate aminotransferase, P00509 (parent)
chain: MFENITAAPADPILGLADLFRADERPGKINLGIGVYKDETGKTPVLTSVKKAEQYLLENETTKNYLGIDGIPEFGRCTQELLFGKGSALINDKRARTAQTPGGTGALRVAADFLAKNTSVKRVWVSNPSWPNHKSVFNSAGLEVREYAYYDAENHTLDFDALINSLNEAQAGDVVLFHGCCHNPTGIDPTLEQWQTLAQLSVEKGWLPLFDFAYQGFARGLEEDAEGLRAFAAMHKELIVASSYSKNFGLYNERVGACTLVAADSETVDRAFSQMKAAIRANYSNPPAHGASVVATILSNDALRAIWEQELTDMRQRIQRMRQLFVNTLQEKGANRDFSFIIKQNGMFSFSGLTKEQVLRLREEFGVYAVASGRVNVAGMTPDNMAPLCEAIVAVL

Variants of B1 are the subject of the data set. The note with it: Escherichia coli (strain K12); pH 7.5; 25 °C; Urea; Fluorescence; Potassium phosphate 20 mM; reversible: Yes; structure 1AMQ; whole UniProt chain shown.

“And” between values parts separate entries of the source, which are not always exact repeats. Equal entries are not always repeated.

As for MFENIAAAPADPILGLADLFRADERPGKINLGIGVYKDETGKTPVLTSVKKAEQYLLENETTKNYLGIDGIPEFGRCTQELLFGKGSALINDKRARTAQTPGGTGALRVAADFLAKNTSVKRVWVSNPSWPNHKSVFNSAGLEVREYAYYDAENHTLDFDALINSLNEAQAGDVVLFHGCCHNPTGIDPTLEQWQTLAQLSVEKGWLPLFDFAYQGFARGLEEDAEGLRAFAAMHKELIVASSYSKNFGLYNERVGACTLVAADSETVDRAFSQMKAAIRANYSNPPAHGASVVATILSNDALRAIWEQELTDMRQRIQRMRQLFVNTLQEKGANRDFSFIIKQNGMFSFSGLTKEQVLRLREEFGVYAVASGRVNVAGMTPDNMAPLCEAIVAVL [T6A], the “ddG of mutation (higher = less stable)” value stood at 5.44 kJ/mol; the “denaturant midpoint (higher = more stable)” value (“denaturant midpoint” below) was 3.62 M and 4.77 M.
As for MFENITAAPADPILGLADLFRADERPGKINLGIGVYKDETGKTPVLTSVKKAEQYLLENETTKNYLGIDGIPEFGRCTQELLFGKGSALINDKRARTAQTPGGTGALRVAADFLAKNTSVKRVWVSNPSWPNHKSVFNSAGLEVREYAYYDAENHTLDFDALINSLNEAQAGDVVLFHGCCHNPTGIDPTLEQWQTLAQLSVEKGWLPLFDFAYQGFARGLEEDAEGLRAFAAMHKELIVASSYSKNFGLYNERVGACTLVAADSETVDRAFSQMKAAIRADYSNPPAHGASVVATILSNDALRAIWEQELTDMRQRIQRMRQLFVNTLQEKGANRDFSFIIKQNGMFSFSGLTKEQVLRLREEFGVYAVASGRVNVAGMTPDNMAPLCEAIVAVL [N282D], the “ddG of mutation (higher = less stable)” value is -3.35 kJ/mol; the “denaturant midpoint” value is 4.15 M and 4.9 M and 5.13 M.
On to MFENITAAPADPILGLADLFRADERPGKINLGIGVYKDETGKTPVLTSVKKAEQYLLENETTKNYLGIDGIPEFGRCTQELLFGKGSALINDKRARTAQTPGGTGALRVAADFLAKNTSVKRVWVSNPSWPNHKSVFNSAGLEVREYAYYDAENHTLDFDALINSLNEAQAGDVVLFHGCCHNPTGIDPTLEQWQTLAQLSVEKGWLPLFDFAYQGFARGLEEDAEGLRAFAAMHKELIVASSYSKNFGLYNERVGACTLVAADSETVDRAFSQMKAAIRARYSNPPAHGASVVATILSNDALRAIWEQELTDMRQRIQRMRQLFVNTLQEKGANRDFSFIIKQNGMFSFSGLTKEQVLRLREEFGVYAVASGRVNVAGMTPDNMAPLCEAIVAVL [N282R], for which the “ddG of mutation (higher = less stable)” value was determined as 10.9 kJ/mol; the “denaturant midpoint” value is 3.3 M and 5.17 M.
For the variant MFENITAAPADPILGLADLFRADERPGKINLGIGVYKDETGKTPVLTSVKKAEQYLLENETTKNYLGIDGIPEFGRCTQELLFGKGSALINDKRARTAQTPGGTGALRVAADFLAKNTSVKRVWVSNPSWPNHKSVFNSAGLEVREYAYYDAENHTLDFDALINSLNEAQAGDVVLFHGCCHNPTGIDPTLEQWQTLAQLSVEKGWLPLFDFAYQGFARGLEEDAEGLRAFAAMHKELIVASSYSKNFGLYNEKVGACTLVAADSETVDRAFSQMKAAIRANYSNPPAHGASVVATILSNDALRAIWEQELTDMRQRIQRMRQLFVNTLQEKGANRDFSFIIKQNGMFSFSGLTKEQVLRLREEFGVYAVASGRVNVAGMTPDNMAPLCEAIVAVL [R254K], the “ddG of mutation (higher = less stable)” value was 31.8 kJ/mol and 20.9 kJ/mol.
Consider MFENITAAPADPILGLADLFRADERPGKINLGIGVYKDETGKTPVLTSVKKAEQYLLENETTKNYLGIDGIPEFGRCTQELLFGKGSALINDKRARTAQTPGGTGALRVAADFLAKNTSVKRVWVSNPSWPNHKSVFNSAGLEVREYAYYDAENHTLDFDALINSLNEAQAGDVVLFHGCCHNPTGIDPTLEQWQTLAQLSVEKGWLPLFDFAYQGFARGLEEDAEGLRAFAAMHKELIVASSYSKNFGLYNEMVGACTLVAADSETVDRAFSQMKAAIRANYSNPPAHGASVVATILSNDALRAIWEQELTDMRQRIQRMRQLFVNTLQEKGANRDFSFIIKQNGMFSFSGLTKEQVLRLREEFGVYAVASGRVNVAGMTPDNMAPLCEAIVAVL [R254M], for which the “ddG of mutation (higher = less stable)” value is 15.9 kJ/mol and 14.2 kJ/mol; the “denaturant midpoint” value was 3.06 M and 3.12 M and 5.19 M.
With MFENITAAPADPILGLADLFRADERPGKINLGIGVYKDETGKTPVLTSVKKAEQYLLENETTMNYLGIDGIPEFGRCTQELLFGKGSALINDKRARTAQTPGGTGALRVAADFLAKNTSVKRVWVSNPSWPNHKSVFNSAGLEVREYAYYDAENHTLDFDALINSLNEAQAGDVVLFHGCCHNPTGIDPTLEQWQTLAQLSVEKGWLPLFDFAYQGFARGLEEDAEGLRAFAAMHKELIVASSYSKNFGLYNQRVGACTLVAADSETVDRAFSQMKAAIRANYSNPPAHGASVVATILSNDALRAIWEQELTDMRQRIQRMRQLFVNTLQEKGANRDFSFIIKQNGMFSFSGLTKEQVLRLREEFGVYAVASGRVNVAGMTPDNMAPLCEAIVAVL [K63M E253Q], the “ddG of mutation (higher = less stable)” value is 22.2 kJ/mol and 19.2 kJ/mol.
Turning to MFENATAAPADPILGLADLFRADERPGKINLGIGVYKDETGKTPVLTSVKKAEQYLLENETTKNYLGIDGIPEFGRCTQELLFGKGSALINDKRARTAQTPGGTGALRVAADFLAKNTSVKRVWVSNPSWPNHKSVFNSAGLEVREYAYYDAENHTLDFDALINSLNEAQAGDVVLFHGCCHNPTGIDPTLEQWQTLAQLSVEKGWLPLFDFAYQGFARGLEEDAEGLRAFAAMHKELIVASSYSKNFGLYNERVGACTLVAADSETVDRAFSQMKAAIRANYSNPPAHGASVVATILSNDALRAIWEQELTDMRQRIQRMRQLFVNTLQEKGANRDFSFIIKQNGMFSFSGLTKEQVLRLREEFGVYAVASGRVNVAGMTPDNMAPLCEAIVAVL [I5A], the “ddG of mutation (higher = less stable)” value is 20.5 kJ/mol and 21.3 kJ/mol; the “denaturant midpoint” value is 2.81 M and 2.74 M and 5.2 M.
